This note sets out measurements from PMC9708728.

In this experiment the target is SARS-CoV-2 RBD (R319-F541) with a C-terminal His tag (SARS-CoV-2) (UniProt P0DTC2). Briefly: SEC + other: non-reducing SDS-PAGE.

As a reminder, the stoichiometry N is the number of molecules, sites or subunits per partner or assembly. As for “SARS-CoV-2 RBD (R319-F541) with a C-terminal His tag (from UniProt P0DTC2 319-541) (domain or fragment)”, the percent dimer stood at 30% and the stoichiometry N was found to be 2.
